Measured values as given in paper PMC10582448.

Molecular target: nucleosomes reconstituted in vitro from X. laevis core histones on biotinylated pKYB1 DNA (Xenopus laevis)
Assay: optical tweezers with confocal fluorescence microscopy; nucleosomes on pKYB1 DNA tethered between streptavidin beads, in 1–2 nM fluorescently labelled chaperone; force-extension curves 1–32 pN at 20 nm/s with kymographs at 4 Hz; binding events after unwrapping / at high force (>10 pN); 25 mM HEPES, 50 mM KCl, 0.1 mM EDTA, pH 7.5

nucleophosmin 1, labelled with Alexa Fluor 532, sequence (P06748 whole entry): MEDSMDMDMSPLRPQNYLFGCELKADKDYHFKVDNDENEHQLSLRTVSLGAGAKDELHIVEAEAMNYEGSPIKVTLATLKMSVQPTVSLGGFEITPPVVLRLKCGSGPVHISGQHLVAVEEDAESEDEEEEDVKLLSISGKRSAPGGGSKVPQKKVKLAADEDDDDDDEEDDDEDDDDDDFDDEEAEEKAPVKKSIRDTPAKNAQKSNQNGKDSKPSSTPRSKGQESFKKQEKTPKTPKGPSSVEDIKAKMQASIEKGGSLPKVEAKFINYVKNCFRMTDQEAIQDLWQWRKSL

Substance | percent of the chaperone binding events found after complete unwrapping
nucleophosmin 1, labelled with Alexa Fluor 532 (from UniProt P06748 1-294) (natural protein) | > 90%
SET/template‐activating factor‐Iβ Q69C, labelled with Alexa Fluor 532 (from UniProt Q01105-2 1-277) (natural protein) | > 90%
